# Measured values from patent US20240261333A1, “NOVEL TARGETS FOR ENHANCING ANTI-TUMOR IMMUNITY” (THE BROAD INSTITUTE, INC., priority 2021, published 2024).
# B1: SPRR1A (protein)
# chain: MNSQQQKQPCTPPPQPQQQQVKQPCQPPPQEPCIPKTKEPCHPKVPEPCHPKVPEPCQPKVPEPCQPKVPEPCPSTVTPAPAQQKTKQK
# B2: MAGT1 (protein)
# chain: QRKKEMVLSEKVSQLMEWTNKRPVIRMNGDKFRRLVKAPPRNYSVIVMFTALQLHRQCVVCKQADEEFQILANSWRYSSAFTNRIFFAMVDFDEGSDVFQMLNMNSAPTFINFPAKGKPKRGDTYELQVRGFSAEQIARWIADRTDVNIRVIRPPNYAGPLMLGLLLAVIGGLVYLRRSNMEFLFNKTGWAFAALCFVLAMTSGQMWNHIRGPPYAHKNPHTGHVNYIHGSSQAQFVAETHIVLLFNGGVTLGMVLLCEAATSDMDIGKRKIMCVAGIGLVVLFFSWMLSIFRSKYHGYPYSFLMS
# B3: ILF3 (protein)
# chain: MRPMRIFVNDDRHVMAKHSSVYPTQEELEAVQNMVSHTERALKAVSDWIDEQEKGSSEQAESDNMDVPPEDDSKEGAGEQKTEHMTRTLRGVMRVGLVAKGLLLKGDLDLELVLLCKEKPTTALLDKVADNLAIQLAAVTEDKYEILQSVDDAAIVIKNTKEPPLSLTIHLTSPVVREEMEKVLAGETLSVNDPPDVLDRQKCLAALASLRHAKWFQARANGLKSCVIVIRVLRDLCTRVPTWGPLRGWPLELLCEKSIGTANRPMGAGEALRRVLECLASGIVMPDGSGIYDPCEKEATDAIGHLDRQQREDITQSAQHALRLAAFGQLHKVLGMDPLPSKMPKKPKNENPVDYTVQIPPSTTYAITPMKRPMEEDGEEKSPSKKKKKIQKKEEKAEPPQAMNALMRLNQLKPGLQYKLVSQTGPVHAPIFTMSVEVDGNSFEASGPSKKTAKLHVAVKVLQDMGLPTGAEGRDSSKGEDSAEETEAKPAVVAPAPVVEAVSTPSAAFPSDATAEQGPILTKHGKNPVMELNEKRRGLKYELISETGGSHDKRFVMEVEVDGQKFQGAGSNKKVAKAYAALAALEKLFPDTPLALDANKKKRAPVPVRGGPKFAAKPHNPGFGMGGPMHNEVPPPPNLRGRGRGGSIRGRGRGRGFGGANHGGYMNAGAGYGSYGYGGNSATAGYSQFYSNGGHSGNASGGGGGGGGGSSGYGSYYQGDNYNSPVPPKHAGKKQPHGGQQKPSYGSGYQSHQGQQQSYNQSPYSNYGPPQGKQKGYNHGQGSYSYSNSYNSPGGGGGSDYNYESKFNYSGSGGRSGGNSYGSGGASYNPGSHGGYGGGSGGGSSYQGKQGGYSQSNYNSPGSGQNYSGPPSSYQSSQGGYGRNADHSMNYQYR
# B4: TUBB6 (protein)
# chain: MREIVHIQAGQCGNQIGTKFWEVISDEHGIDPAGGYVGDSALQLERINVYYNESSSQKYVPRAALVDLEPGTMDSVRSGPFGQLFRPDNFIFGQTGAGNNWAKGHYTEGAELVDAVLDVVRKECEHCDCLQGFQLTHSLGGGTGSGMGTLLISKIREEFPDRIMNTFSVMPSPKVSDTVVEPYNATLSVHQLVENTDETYCIDNEALYDICFRTLKLTTPTYGDLNHLVSATMSGVTTSLRFPGQLNADLRKLAVNMVPFPRLHFFMPGFAPLTSRGSQQYRALTVPELTQQMFDARNMMAACDPRHGRYLTVATVFRGPMSMKEVDEQMLAIQSKNSSYFVEWIPNNVKVAVCDIPPRGLKMASTFIGNSTAIQELFKRISEQFSAMFRRKAFLHWFTGEGMDEMEFTEAESNMNDLVSEYQQYQDATANDGEEAFEDEEEEIDG
# B5: ZC3HAV1 (protein, UniProt Q7Z2W4 2-902, looked up)
# Zinc finger CCCH-type …: ADPEVCCFITKILCAHGGRMALDALLQEIALSEPQLCEVLQVAGPDRFVVLETGGEAGITRSVVATTRARVCRRKYCQRPCDNLHLCKLNLLGRCNYSQSERNLCKYSHEVLSEENFKVLKNHELSGLNKEELAVLLLQSDPFFMPEICKSYKGEGRQQICNQQPPCSRLHICDHFTRGNCRFPNCLRSHNLMDRKVLAIMREHGLNPDVVQNIQDICNSKHMQKNPPGPRAPSSHRRNMAYRARSKSRDRFFQGSQEFLASASASAERSCTPSPDQISHRASLEDAPVDDLTRKFTYLGSQDRARPPSGSSKATDLGGTSQAGTSQRFLENGSQEDLLHGNPGSTYLASNSTSAPNWKSLTSWTNDQGARRKTVFSPTLPAARSSLGSLQTPEAVTTRKGTGLLSSDYRIINGKSGTQDIQPGPLFNNNADGVATDITSTRSLNYKSTSSGHREISSPRIQDAGPASRDVQATGRIADDADPRVALVNDSLSDVTSTTSSRVDDHDSEEICLDHLCKGCPLNGSCSKVHFHLPYRWQMLIGKTWTDFEHMETIEKGYCNPGIHLCSVGSYTINFRVMSCDSFPIRRLSTPSSVTKPANSVFTTKWIWYWKNESGTWIQYGEEKDKRKNSNVDSSYLESLYQSCPRGVVPFQAGSRNYELSFQGMIQTNIASKTQKDVIRRPTFVPQWYVQQMKRGPDHQPAKTSSVSLTATFRPQEDFCFLSSKKYKLSEIHHLHPEYVRVSEHFKASMKNFKIEKIKKIENSELLDKFTWKKSQMKEEGKLLFYATSRAYVESICSNNFDSFLHETHENKYGKGIYFAKDAIYSHKNCPYDAKNVVMFVAQVLVGKFTEGNITYTSPPPQFDSCVDTRSNPSVFVIFQKDQVYPQYVIEYTEDKACVIS
# Target: T1, B3GNT2 (Homo sapiens, UniProt Q9NY97)
# T1 construct: The respective ORFs of candidate genes [CD274 (NM_014143), MCL1 (NM_021960), JUNB (NM_002229), and B3GNT2 (NM_006577)] were synthesized; expressed in transfected cells; host or cells: A375 melanoma cells (lentiviral ORF overexpression)
# T1 sequence (Q9NY97 1-397): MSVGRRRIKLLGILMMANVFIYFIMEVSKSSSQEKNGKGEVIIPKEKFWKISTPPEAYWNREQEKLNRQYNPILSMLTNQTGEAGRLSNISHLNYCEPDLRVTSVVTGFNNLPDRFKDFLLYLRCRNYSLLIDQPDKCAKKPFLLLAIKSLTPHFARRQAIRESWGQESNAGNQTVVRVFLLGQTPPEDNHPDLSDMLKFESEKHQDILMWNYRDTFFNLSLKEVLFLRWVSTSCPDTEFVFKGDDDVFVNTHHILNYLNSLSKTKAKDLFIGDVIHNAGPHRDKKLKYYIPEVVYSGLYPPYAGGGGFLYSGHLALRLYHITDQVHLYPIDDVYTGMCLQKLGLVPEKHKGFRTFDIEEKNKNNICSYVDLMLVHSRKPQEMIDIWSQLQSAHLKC
# Assay: Co-IP of FLAG-tagged B3GNT2 followed by mass spectrometry
# Assay type: cell-based
# Parameters: C-term IgG / C-term flag: unit not given here
# Conditions: mass spectrometry count, unit not given; for C-term flag / N-term FLAG: Co-IP with FLAG antibody; for C-term flag / C-term IgG: C-terminally FLAG-tagged B3GNT2; for N-term FLAG / N-term IgG: N-terminally FLAG-tagged B3GNT2; for C-term IgG / N-term IgG: Co-IP with IgG control antibody
# In short: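 Co-purifying proteins were identified by fractionated nano-LC–MS/MS on an Orbitrap Elite, run data-dependent. Beforehand, lysates in 1% Triton X-100/HEPES buffer were incubated overnight at 4° C with anti-FLAG or […] and pulled down on Protein A/G magnetic beads for 4 h. Duplicate biological replicates.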
molecule,measurement,value
B1,C-term flag,3
same,N-term FLAG,4
same,C-term IgG,0
same,N-term IgG,0
B2,C-term flag,2
same,N-term FLAG,0
same,C-term IgG,0
same,N-term IgG,0
B3,C-term flag,5
same,N-term FLAG,2
same,C-term IgG,0
same,N-term IgG,0
B4,C-term flag,42
same,N-term FLAG,63
same,C-term IgG,0
same,N-term IgG,0
B5,C-term flag,4
same,N-term FLAG,3
same,C-term IgG,0
same,N-term IgG,0
